# Measured values as given in the DeepSol protein solubility set.
# Test: soluble on expression in E. coli; label from the status in PepcDB or PDB records
row,Sequence,soluble on expression in E. coli
1,MSLEYKYDVVIVGLGPAGSSLAYLLKDTGLKVAGLDIADFNRVWGKPCGDAIGKGHFLETGLPLPKGEAMMQVVNAVDIYSPSEEVKIRLSEPEGGFMIDRNKYGLQLLEEAQKSGVDVYLKTHALSPIIENGRLVGVYAKRHGEDGDVNVKFYSKIIVDATGSGGAIKRKLPSSWPVVEPLKPTDSAVAYRKIVELDYDIEEPDVIRIYINADIAPGGYWWLFPKGRRIANIGIGVQRGRGYPHPRHLYEKYLDKRPDTGRVVRLLNEAGALLPTRRPANTIVWDNFVSIGDNAYTVNPVHGGGMGYAMTAAMYAARGIEKAFEKGDYSVETLWDINLGYMRSTGAKQAGLDILRIYLQTLTNEEVEWAMRNGLANVDNLVEASTQGEIKRLNLTLLEKAKVLARLLGRPTKLMELLTVAEYMSKVKKLYYEYPERPDGLPRWVDRVETLYREYKARLGIDWEGHHHHHH,soluble
2,MSLFIPKRVIFEKDSLDYEAAKNILNKFKDKKDVEIINITSNKLKQHIPGEDFYAQYREGKKTLVVGTKKSLKFQSCKPSAHYQLPLISGCMGQCEYCYLNTKLGDKPFVKVHVNIDEILSQAQKYIDERLPEITIFEGAATSDPIPVEPYTHSLEKAIVFFGKHENARFRFVTKYNDIDSLLDLEHNGHTEMRFSINTSSVINKYEHATASRDLRIEASIKAAKAGYPIGFLVAPVFIYPNWKEEYHDLLLSLSKNLPRDLKTPVTFEIISHRYTSTAKNIILQVFPESELPMSDEERKFKYGQFGYGKYVYPKENIDEMKQFFIKEIEDLFENKEIKYVIEGHHHHHH,soluble
3,MSLFPILETDRLILRQITDQDAEAIFACFSNDEVTRYYGLENMESIEQAISMIQTFAALYQEKRGIRWGIERRDTKELIGTIGFHALAQKHRRAEIGYEIIPEHWRNGFASEVISKVVSYGFSALGLSRIGAVVFTDNEASNRLLLKMGFQKEGVLRQYMYSKWDSIEGGSHHHHHH,soluble
4,MSLGEWKDELIHNADKFDFPIFTPYYELTDEQRRTLWEGNQYFHGINDFFKMLEENQYKIQYRVMLARYRGKTICPKCHGTRLKPEAGYVRVDGKSISELVDLPITELKEFFDHLNLNEHDSNVARRILIEINSRIRFLIDVGLGYLTLNRLSNSLSGGESQRINLATSLGSSLVGSLYILDEPSIGLHSRDTDRLIRVLRQLQELGNTVVVVEHDEEIIRAADYIIDIGPNAGRLGGEVVYQGDMKDLKKGSNSHTVRYLLGEEEIPVPEHRRPWNNYIELTGARENNLKGVNVKFPLNVMTVVTGVSGSGKSTLVRDIFYRALKRELDECSDRPGEFSSISGSLRDLRNIEFVDQNPIGKSSRSNPVTYIKAYDEIRKLWAEQPLAKQMGYTAGHFSFNSEGGRCEECKGEGTITVEMQFMADLVLECESCHGKRFKADTLEVKFQDKNIYDVLEMTVNQAVEFFTEHGQKKIVKRLLPLQDVGLGYIKLGQSSSTLSGGENQRVKLAFYLSQEKADPTLFIFDEPTTGLHFHDIRKLLDAFDALIRRGHSIVIIEHNMDVIKCADYVIDLGPEGGDKGGNIVAVGTPEEVAACGASYTGQFLKEKLAEGHHHHHH,not soluble
5,MSLGFVPVRGLHHFAYRCRDAEETRQFYEGILGLPLVHVVRAEEVPSTGEYCPYMHLFFEMKDGSCVAFFDLDDDTVPLPSSNTPVWAQHLALRVDSVAAVEEAKRKLEQAGVKVLGPVDHDGFVCSIYFFDPNGVRLELTTDTADSTEMARYRREARPGCDAWTLEKSLRRATGQGSVLREGHHHHHH,not soluble
6,MSLGGDRFYDLISAVHKSIRGSAPDAALYWYARIITAGGDPLYVARRLLAIASEDIGNADPRAMQVALSAWDCFTRVGAAEGERAIAQAIVYLAVAPKSNAVYQAFNAAKALAKQAPDYDVPRHLTNAPTQLLKELGNHAEYRYAHDEPNAYAAGENYFPEPLKDTRFYFPGARGMEIKIKEKLDWLRNLDQQSENIREGHHHHHH,soluble
7,MSLGHAKEVKIGVILGFTGPIESLTPSMADGAELAMKEVTDSGLLLDGATVTSVRADSTCVDAAAATAAAERLVTSDKVDGIMGADCSGVTGAILSNVAVPNGVVMISPSATSPALSTADDNGLFFRTAPSDARQGVVMTEVLMEEGIKEVALTYTNNDYGKGLADSFQAAFEAAGGTVTISAAHEDGKADYSAEVGALAAAGGDRLVVAGYVDQGGSGIVRSAIDSGAFDTFHFPDGMIGAKLEENFGDEIEGSSGQHPGTDSPGVAKFSEMVGGAFDSTSPFTPEAYDAAALIMLAMQAANSKDSGDYKDHVMHVANAPGEKIYPGELAKALQIIKDGGEVDYVGATAVELIGPGESAGNYRQITIEGGKITTAKFREGHHHHHH,soluble
8,MSLGKATGFMEYDRIPSPGRDPKSRTRDWNEYSLPMPVADLTLQAARCMDCGVPFCSVGMEIKNGVSGCPLHNLIPEWNDAVYRGDWYEALQLLLKTNNFPEFTGRICPAPCEGGCTVAISEPAVGIKSIEKAIIDRGFEEGWIKPQPPKKRTGKRIAVIGSGPAGLACADQLNKAGHSVTVIEKSDRIGGLLMYGIPTMKLEKEQVTRRVNLMAEEGIEFVTGVAAGTDVTFAELRAEYDSIVLATGAGNARDIPLAGRDAAGIHFAVPYLTQSTRDNLDNGGVQTLSAKDKNVVIIGGGDTGADCVATALRQGAKSIYQFGIQDKLPELRNGENPWPQYPRVFKMDYAHEEAEAVYGRDPREYLINTTSFEKDAAGNLVGLHTVEVTEDKETRQYTPVEGSEKYFEVDMVLIAIGFSGTTEDIFTNFGVGKTERHTIDAAKGFYRTSEEGVFACGDARHGQSLVVTAIAEGREAAREVDFYLMGETFLEGHHHHHH,soluble
9,MSLGKKELIGFQVGVRESTQSWHELLVEAKTRGLKIAPEIAVGDGALGFWKALDEVFPATRHQRCWVHKTANILNKVAVSVQASMKKDLREVYLASNRASAEVAIDVFAEKYGAKYDKAVECLTKDRDAMLAFYEFPAEHWDHLRTTNPIESVFATVRHRTVRTKGSLSSTTAKLMVFKLLCAASKTWRRLKGTNQLPKVSAGVRFENGIEEGHHHHHH,not soluble
10,MSLGKSNVLVTMPVAPTMEVKSFPILDQCVGQVGLNFELSFTGAPPYYYNTKIYKLENGERKLYDAKRYTSEGTRNRFSYSPPKEGNYEIVFDTVSNKLFTEPIKLEPVKEYTFKTSMRVKPSASLKLHHDLKLCLGDHSSVPVALKGQGPFTLTYDIIETFSSKRKTFEIKEIKTNEYVIKTPVFTTGGDYILSLVSIKDSTGCVVGLSQPDAKIQVRRDIPSAAFNFFEPIKEAKIKHGSVTEIPLKLSGEGPFTVKFKHMDYDGNIVKEFENKFQNSYKPALKVSKEGLYQLVDIRDSSCQGNVIYRNSLYKVSFLEKPKFAIQDNHHITKVTENLFSKEEVCQGMEGTVDLALFGSPPFILEYDLMAPNGHISTKKIQVATKYASLKLPNQIPGEYITTIKAIFDGNYGESDIHFREHQSELIIKQTVHPIPDVAFADGGKTLRACAANVDQISFLEPINLKFLQGESPFSITFSVYHESTSRTDQYTIDNIDSENFSFEKLYEGMKLGNHAITIDSVVDANGCVNSLISGPRNQILVSITDAPKIHILDPSTEYCVGDYVAYQLNGVAPFMIKYEFNGIPLKSKERSSQFVRLASEPGIISITSLQDSSSQCIVDFTNPKLKSEFDDEGHHHHHH,soluble
11,MSLGKYFGTDGVRGVANSELTPELAFRLGRMGGYVLTRHVGEHPRVLVARDTRISGEMLESALIAGLVSVGIEVMRLGVISTPGVAYLTKAQGASASVMISASHNPVDDNGIKFFGSDGFKLSDDQEEEIEQLLDTAEDTLPRPSGEGLGTVSDYFEGKQKYIQYLKQTIENDFNGYHIALDCANGATSGLATHLFADLDADISSMGASPNGLNINDGVGSTHPEALAAFVLDKKADVGLAFDGDGDRVIAIDEIGQIVDGDKIMFICAKYLREQGLLNNNTIVSTVMSNLGFYKGLKELEIEDVQTAVGDRYVVEAMREGNYNLGGEQSGHIIFLDHNTTGDGLLSGIQLINVMKATGKKLSELAAEMKTFPQKLENIRVSDKNHVTDNPKVSKVIGEVEAEMAGNGRVLVRPSGTEPLVRVMVEAATKEETDEYCERISAVVRSEMALNDEGHHHHHH,soluble
12,MSLGLLDNVKKMVKKEATENPQQTSDDQKQVQAIHVTNGIDPKVIDAMNERMTKIENDLGKLSGEMEGQKKTLNDIKNELEGIKENVKMVVSLYELVSRDFNPFMDKTPEEIRGITDTLAEQVNNVKQLVEAAIKDLRELYGVPDIDQFIQMEEKKEGHHHHHH,soluble
